Consider 41 sequences from the nanobody polyreactivity screen of Harvey et al. (2022).

This data set can be described thus: yeast display, Sf9 membrane polyspecificity reagent, FACS + sequencing; frameworks hold sequencing errors. Summed up:
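After 36–48 hours of galactose induction, yeast (Saccharomyces cerevisiae BJ5465) displaying a synthetic nanobody library were stained at 4 °C for 1 hour with 10% biotinylated, detergent-solubilized Sf9 membrane reagent. Streptavidin microbeads enriched the stained cells before FACS sorting into low and high (top ~1%) gates on anti-HA and streptavidin fluorescence. Each clone's polyreactivity label reflects its gate of origin.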
As for “QVQHVESGGGLVQAGGSLRLSCAASGSINSNAMGWYRQARGKERELVAAISGSGSTTYYADSVKGRFTISRDNAKNTVYLKMNSLKPEDTAVYYCARGVYGRGRTERYYWGQGTQVIVSS”, the “polyreactivity (PSR sort gate)” value is given as “high polyreactivity”.

For the sequence “QVQHVESGGGLVQAGGSLRLSCAASGSISKINAMGWYRQAPGKERELVAAINTGDSTYYADSVKGRFTISRDNAKNSVYLQMNSLKPEDSAVYYCAAEGSPTGYDYWGQGTQVTVSS”, the “polyreactivity (PSR sort gate)” value was “low polyreactivity”.

With “QVQHVESGGGLVQAGGSLRLSCAASGSIYYLNAMGWYRQGPGKEWELVAAINRGGSTSYADSVKGRFTISRDNAKNTVYLQMNSLKEADTAVYYCAADHGGVQYSVRYDYWGQGTQLTVSS”, the “polyreactivity (PSR sort gate)” value is listed as “low polyreactivity”.

With “QVQHVESGGGLVQAGGSLRLSCAASGSTFANNAMGWYRQAPGKERELVASITTDGSTNYADSVKGRFTISRDNAKNPVYLQMNSLKPEDSAVYYCAADYHTPSSFAPIELYDYCGQGTQVTVSS”, the “polyreactivity (PSR sort gate)” value was “low polyreactivity”.

“QVQHVESGGGLVQAGGSLRLSCAASGSTFFKYDMGWYRPAPGTERELVAVITWSGGTTFYADSVKGRFTISRDNANNTVYLQMNSLKPEDTAVSYCAADYYGYRYDYWGQGTQVTVSS”: the “polyreactivity (PSR sort gate)” value is recorded as “low polyreactivity”.

As to “QVQHVESGGGLVQAGGSLRLSCAASGSTFGGYTMGWSRQAPGTERELVASIRSGGSTYYADSVKGRFTISRDNAKNTVYLQMNSLKPEVTAVYYCAADGRRDRDYWGQGTQVTVSS”, the “polyreactivity (PSR sort gate)” value is given as “high polyreactivity”.

In the case of “QVQHVESGGGLVQAGGSLRLSCAASGSTFKYYAMGWSRQAPGKERELVAAISLSGGRTSYADSVKGRFTISRDNAKNTVYLQMNSLKPVDTAVYYCAAASYFPRFNYWGQGTQVTVSS”, the “polyreactivity (PSR sort gate)” value was “high polyreactivity”.

As for “QVQHVESGGGLVQAGGSLRLSCAASGSTFQYPYTMGWYRQAPRKARELVAVISRTGGSTFYADSVKGRFTISRDNAKNTVYLQMNSLKPEDTAVYYCNARPRYKYPSYDYWGQGTQLTVSS”, the “polyreactivity (PSR sort gate)” value is “high polyreactivity”.

Consider “QVQHVESGGGLVQAGGSLRLSCAASGSTFRYYTMGWYRQAPGKERELVAAISGSGGITYYADSVKGRFTISRDNAKNTVYLQMNSLKPEDTAVYYCNAGVFYRDDYWGQGTEVTVSS”, for which the “polyreactivity (PSR sort gate)” value is on record as “high polyreactivity”.

With “QVQHVESGGGLVQAGGSLRLSCAASGSTFSRYTMGWYRQAPGKERELVAGISRRGGITYYADSVKGRFTISRDNAKNTVYLQMNSLKPEDTAVYYCARTDVYWYGYPYDYWGQGTQVTVSS”, the “polyreactivity (PSR sort gate)” value is listed as “high polyreactivity”.

Consider “QVQHVESGGGLVQAGGSLRLSCAASGSTFWYYDMGGYRQAPGKERELVAAISTRGDSTYYADSVKGRFTISRDNAKNTVYLQMNSLKPEDTAVYYCAKSRQSSGRVRFDYWGQGTQVTVSS”, for which the “polyreactivity (PSR sort gate)” value is on record as “low polyreactivity”.

On to “QVQHVESGGGLVQAGGSLRLSCAASGSTIEDYAMGWYRQAPGKERELVAAISFSGARTYYADSVKGRFTISRDKAKNTVYLQMNSLKPEDTAVYYCNAVSGIVQRYDYWGQGTQVTVSS”, for which the “polyreactivity (PSR sort gate)” value is on record as “high polyreactivity”.

“QVQHVESGGGLVQAGGSLRLSCAASGSTLGGYAMGWYRQAPGKERELVAAIRWRDGRTYYADSVKGRFTISRDNPKNTVYLQMNSLKPEDTAVYYCAAQYYLARVSFDYWGQGTQVTVSS”: the “polyreactivity (PSR sort gate)” value was “high polyreactivity”.

As to “QVQHVESGGGLVQAGGSLRLSCAASRFIFVTYAMGCYIQAPGKERELVAAITNSGGTTYYADSVKGRFTISRDNAKNTVYLQMNSLKPEDTAVYYCNKPYGAETAHREFDYWGQGTQVTVSS”, the “polyreactivity (PSR sort gate)” value is listed as “low polyreactivity”.

“QVQHVESGGGLVQAGGSLRLSCAASVITFYGYTMGWYRQAPGKERELVARIRSRSTSTYYADSVKGRFTISRDNAKNTVDLQMNSLKPEDTAVYYCNADYTNPGSYRKYDYWGQGTQVTVSS”: the “polyreactivity (PSR sort gate)” value is given as “low polyreactivity”.

For the sequence “QVQHVESGGGLVQAGGSLRLSCAATGRTFVYYAMGWYRQPPRKESELVASISSVGTTKYADSVKGRFTISRDNAKNTVYLQMNSLKPEDTAVYYCNNADDYSTVEFDYWGQGTQVTVSS”, the “polyreactivity (PSR sort gate)” value is listed as “low polyreactivity”.

As to “QVQHVESGGGLVQAGGSLRLSCASSGFIFYKYVMGWYRQAPGKERELVAAINWSGGSTYYADSVKGRFTISRDNAKNTVYLQMNSLKPDVTAVYYCAALSQYRYDYWGQGTQVTVSS”, the “polyreactivity (PSR sort gate)” value is reported as “high polyreactivity”.

Take “QVQHVESGGGLVQAGGSLRLSCASSGRIFSDYAMGWYRPAPGKERELVAAISRSGTRTYYADSVKGRFTISRDNAKNTVYFQMISLKPEDTAVYYCAAKTQSGRAGQEEDYWGQGTQVTVSS”: the “polyreactivity (PSR sort gate)” value was “high polyreactivity”.

As for “QVQHVESGGGLVQAGGSLRLSCPASGLTVGGYAMGWYRQAPGKERELVAAISLSGGRTYYADSVKGRFTISRDIPMITVYLLMNSLKPEVSAVYYCAASILVVYLREDYWGQGTQVTVSS”, the “polyreactivity (PSR sort gate)” value is recorded as “high polyreactivity”.

On to “QVQHVESGGGLVQAGGSLRLSCSASGITFGYYAMGWYRQAPGKERELVAAIRSSGGSTYYADSVKGRFTISRDNAKNTVYLQMKSLKPEDTAVYYCNARYRKSSRPGYEPFERYYWGQGTQVTVSS”, for which the “polyreactivity (PSR sort gate)” value was “high polyreactivity”.

On to “QVQHVESGGGLVQAGGSLRLSCSASGITLPGSAIGWYRQAAGKVREFVAAISTSGGSTYYADSVKGRFTISRDYAKNTVYLQMNSLKPEDTAVYYCNARLVYYSYEEMDYWGQGTQVTVSS”, for which the “polyreactivity (PSR sort gate)” value was “low polyreactivity”.

Take “QVQHVESGGGLVQAGGSLRLSSAASGFTFSRNAMGWYRQAPGKERELVAAIDSGGSTDYADSVKGRFTISRDNAKNTVYLQMNSLKPEDTAVYYCNVDGYYLFVRGYEYWGQGTQLTVSS”: the “polyreactivity (PSR sort gate)” value is “low polyreactivity”.

In the case of “QVQHVESGGGLVQAGGSLRLSSAASGNTINSNAMGWYRQSPGKEREFVAAISGSGSSTYYADSVKGRFTISRDYAKNTVYLQMNSLNPEDTAVYYCAARWGYFGSFDYWGQGTQVTVSS”, the “polyreactivity (PSR sort gate)” value is reported as “high polyreactivity”.

For the sequence “QVQHVESGGGLVQAGGSLRLSSAASGRTFFRSAMGWYRQAPGKERELVAAISSRGGSTYYADSVKGRFTISRDNAKNTVYLHMNSLKPEDTAVYYCNAAAFINFILYDYWGQGTQVTVSA”, the “polyreactivity (PSR sort gate)” value was “high polyreactivity”.

Take “QVQHVESGGGLVQAGGSLRLSSAASGRTYWPNAMGWYRQAPGKERELVAAISSGGSTNYADSVKGSFTISRDNAKNTVYLQMNSLKPEDTAVYFWSADGQGDKYDYYGHNYWGQGTHVTVSS”: the “polyreactivity (PSR sort gate)” value is given as “low polyreactivity”.

For the sequence “QVQHVESGGGLVQAGGSLRLSSAASGSIIGYYAMGWYRQAHGKERELVAAITWSGGRTYYADSVKGRFTISRDNAKNTVYFQMNSLKPEDTAVYYSNAANSRSAYYNWGHGTQVTVSS”, the “polyreactivity (PSR sort gate)” value is listed as “high polyreactivity”.

Take “QVQHVESGGGLVQAGGSQRLSCAASGSTLYYNAMGWYRQAPGKEREFVAGISSSGGRTYYADSVKGRFTISRDNAKNTVYLQMNSLKPEDTAVYYCARVGAIPSRYGYWGQGTQVTVSS”: the “polyreactivity (PSR sort gate)” value is recorded as “high polyreactivity”.

Regarding “QVQHVESGGGLVQAGRSLRLSCAASGSIFRDNDMGWYRQATGKEREFVAAINWSGVSTYYADSVKGRFTISRDNAKNTVYLQMNSLKPEDTAVSYCAAGYLKWRRYNYWGQGTQVTVSS”, the “polyreactivity (PSR sort gate)” value was “high polyreactivity”.

As to “QVQHVESGGGLVQAGRSLRLSCAASGSIVGNNAMGWYRQAPGKERELVAVITDGGNTYYADSVKGRFTISRDNAKNTVYLEMNSLKPEDTAVYYCNADWWGDSDYWGQGTQVTVSS”, the “polyreactivity (PSR sort gate)” value was “low polyreactivity”.

As to “QVQHVESGGGLVQAGRSLRLSCAATGRTFGSNAMGWYRQAPGKERELVAAISLRGGRTYYADSVKGRFTISRDNAKNTVYLQMNSLKPEDTAVYYCNAVHYLYGARSRLTYDYWGQGTQVTVSS”, the “polyreactivity (PSR sort gate)” value is “high polyreactivity”.

With “QVQHVESGGGLVQARGSLRLSCAASASIYPSYAMGWYRQAPGKERELVAVINSGGSTYYADSVKGRFTISRDNAKNTVYLQMNILNPEDTAGYYCAAYRRRYPRFDYWGPGTQVTVSS”, the “polyreactivity (PSR sort gate)” value is “high polyreactivity”.

For the sequence “QVQHVESGGGLVQARGSLRLSCAASGSIFFNTMGWYSQAPGKERELVAAITWSGGRTYYADSVKGRFTISRDNAKNTVYLQMNSLKPEDTAVYYCAKDQGSWRYDYWGLGTQVTVSS”, the “polyreactivity (PSR sort gate)” value is “low polyreactivity”.

On to “QVQHVESGGGLVQARGSLRLSCSASGGTFSVYPMGWSRQAPVKERELLADISWSDASTYYADSVKGRFTISRDNAKNTVYLQMNSLKPEDTAVYYCAVSRQSGKGGSKELNDYWVQGTQVTVSS”, for which the “polyreactivity (PSR sort gate)” value was “low polyreactivity”.

Take “QVQHVESGGGLVQAVGSLRLSCAASGIIFPRTAMGWYGQAPGKERELVAGISRSGGSTSYADSVKGRFTISRDNAKNTVYLQMNSRKPEDTAVYYCATRGHPFKKSYGSWGQGTQVTVSS”: the “polyreactivity (PSR sort gate)” value was “high polyreactivity”.

On to “QVQHVESGGGLVQAVGSLRLSCSASGITFHYYTMGWYRQAPGKEREFVAAISKSGGRTYYADSVKGRFTISRDKAKNTVYLQMNSLKPEDTAVYYCAGLYYFNGDYWGEGTQVTVSS”, for which the “polyreactivity (PSR sort gate)” value was “high polyreactivity”.

Consider “QVQHVESGGGLVQEGGILRLSCAASGFTYRTYAMGWSRQAPGQESELVADISGSGGSTYYADSVKGRFTISRDNAKNTVYLQMNSQKPEDTAVFYCAADDASWSNLGYEYWGQGTQVTVSS”, for which the “polyreactivity (PSR sort gate)” value is given as “high polyreactivity”.

“QVQHVESGGGLVQEGGSLRLSCAASARTFPFYAMGWYRQATGKERELVAAITRSDDSPYYADSVKGRFTFSRDNAKNTVYVQMHSLKPEDIAVYYCAADVEGLTVESHVYRVGFDYCGQGTQVTVSS”: the “polyreactivity (PSR sort gate)” value is “low polyreactivity”.

For the sequence “QVQHVESGGRLVQAGGILRLSCAASGRIFQSNAMGWYRQTPGKERELVAGITKRGGSTYYADSVKGRFTISLDYAKNTVYLQMNSLTPEDTAVYYCAKSWSYDPRYGSWGQGTQVTVSS”, the “polyreactivity (PSR sort gate)” value is listed as “high polyreactivity”.

For the sequence “QVQHVESGGVLVQAGGSLRLSCAASGSTFGGYAMGWYRQAPGKERELVASISRRGGSTYYADSVKGRFTLSRDNAKNTFYFHMNSLKPEDTAVYYCNAAFLRQVWDGYNYWGQGSQVTVSS”, the “polyreactivity (PSR sort gate)” value is “high polyreactivity”.

For “QVQHVESGRCLFQAGGSLRLSCAASGSTFYNNALGWYRQAPGKERELVAVITDSGGRTYYADSVKGRFTISRDNAKNSVKLQMNSLKPEDCAVYYCAADIGYDVYNDYDYWGQGTQVTVSS”, the “polyreactivity (PSR sort gate)” value was “low polyreactivity”.

As for “QVQHVESGRGLVQAGGSLRLSCAASGITFNQYAMGWYRQAPGKERELVAGISYSGGSTYYADSVKGRFTISRDNAKNTVYFQMISLKPEDTAVYYCAKRSPFTLDYWGQGTQVTVSS”, the “polyreactivity (PSR sort gate)” value was “high polyreactivity”.
